Measurements published in paper PMC11485749 (mAbs, 2024).
Substitutions are numbered along the chain they refer to. Read-outs that look alike come from different tables or passages of the source. One block for each binder: values may come before it.

Key:
hCD200R1-iso4-Ref ECD [1] = target: T1, hCD200R1-iso4-Ref ECD (Homo sapiens, UniProt Q8TD46)
[2] = target: T2, recombinant MfCD200R1 ECD (Macaca fascicularis, UniProt G7NZT0); experiment: SPR
[3] = target: WT hCD200R1-iso4-Ref expressed on Expi293 cells (Homo sapiens, UniProt Q8TD46, strain); experiment: flow cytometry on cells
hCD200R1-iso4-Ref ECD [4] = target: T1, hCD200R1-iso4-Ref ECD; experiment: SPR
[5] = target: T2, recombinant MfCD200R1 ECD; experiment: SPR; remark: listed apart in the source

T1 sequence (Q8TD46 29-265): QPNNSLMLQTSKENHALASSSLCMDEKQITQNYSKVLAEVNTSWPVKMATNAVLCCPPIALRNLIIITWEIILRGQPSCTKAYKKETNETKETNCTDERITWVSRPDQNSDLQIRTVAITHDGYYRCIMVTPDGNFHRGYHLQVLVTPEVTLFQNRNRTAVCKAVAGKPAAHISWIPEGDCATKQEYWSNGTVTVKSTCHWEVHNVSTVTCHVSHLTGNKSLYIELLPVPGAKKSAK
Chain of WT hCD200R1-iso4-Ref expressed on Expi293 cells (Q8TD46 whole entry, looked up, change not shown, the tested form may be a part): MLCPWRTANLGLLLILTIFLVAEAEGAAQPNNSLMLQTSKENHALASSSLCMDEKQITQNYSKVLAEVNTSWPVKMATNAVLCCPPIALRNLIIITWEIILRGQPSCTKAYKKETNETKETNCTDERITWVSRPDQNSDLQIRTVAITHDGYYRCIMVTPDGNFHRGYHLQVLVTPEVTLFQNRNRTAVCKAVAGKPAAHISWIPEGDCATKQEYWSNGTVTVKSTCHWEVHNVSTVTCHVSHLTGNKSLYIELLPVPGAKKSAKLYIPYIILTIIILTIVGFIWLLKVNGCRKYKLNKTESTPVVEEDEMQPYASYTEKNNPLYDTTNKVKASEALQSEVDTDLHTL

- binding result [5]: binds
B3: 23ME-00610_A33R (antibody, V domains shown)
VH: EVQLQESGPGLVKPSETLSLTCTVSGFSLTNYRVSWVRQPPGKGLEWLGVMWAGGGTNYNSVFKSRLTISKDNSKNQVSLKLSSVTAADTAVYYCARERPLTGVMDYWGQGTLVTVSS
VL: DIVLTQSPDSLAVSLGERATINCRASESVDYSGNSFMHWFQQKPGQPPKLLIYRASNLESGIPDRFSGSGSRTDFTLTISSLQAEDVAVYYCHQSNEDPPTFGGGTKVEIK

- binding result [5]: binds
B4: 23ME-00610_E93W (antibody, V domains shown)
VH: B3 VH with R33A
VL: B3 VL with E97W

More lines, now with the values behind:

B1: 23ME-00611 (antibody, V domains shown)
VH: B3 VH with W52Y, Y107N
VL: B3 VL with E97W
- Kd (hCD200R1-iso4-Ref ECD [1]): 1 nM
- Kd [2]: 2 nM

B2: 23ME-00610 (antibody, V domains shown)
VH: B3 VH with R33A
VL: B3 VL
- binding result [3]: binds
- binding result [2]: no binding (tested: up to 200 nM)
- Kd (hCD200R1-iso4-Ref ECD [4]): 0.1 nM
